Data set [1] concerns the target recombinant Daldinia caldariorum unspecific peroxygenase (Daldinia caldariorum). Kind of data set: SEC; Sepharose 12 10/300 column, 10 mM Tris (pH 7.4) with 0.15 M NaCl, calibrated with ferritin, aldolase, bovine serum albumin, ovalbumin, carbonic anhydrase and aprotinin; native mass compared with SDS-PAGE under reducing conditions. A general note: SEC sorts molecules by how far they enter the pores of the column.

Data set [2] has as its target T1, rCviUPO (C. virescens UPO) (Achaetomiella virescens, UniProt Z9FBJ6W4Y2, T157F, form not given).
T1 construct: codon-optimised gene in pET23a, untagged, soluble in E. coli C41; 29,616 Da calculated, 52 kDa by SEC (most probably dimer); heme-thiolate
T1 sequence (Z9FBJ6W4Y2 1-226 T157F): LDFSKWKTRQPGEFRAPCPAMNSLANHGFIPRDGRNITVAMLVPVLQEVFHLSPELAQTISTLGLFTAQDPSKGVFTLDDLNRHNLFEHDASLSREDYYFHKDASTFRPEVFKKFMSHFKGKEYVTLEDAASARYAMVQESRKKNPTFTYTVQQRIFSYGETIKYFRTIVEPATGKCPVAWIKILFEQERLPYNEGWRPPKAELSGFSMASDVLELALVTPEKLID
Kind of data set: benzaldehyde formation at […] nm. The following applies: 1 mM H2O2, 0.1 M Tris, optimal pH (Fig. S10), 25°C. The format is biochemical.

Data set [3] addresses T2, rCviUPO (C. virescens UPO) (Achaetomiella virescens, UniProt Z9FBJ6W4Y2, F87L, form not given).
T2 construct: codon-optimised gene in pET23a, untagged, soluble in E. coli C41; 29,616 Da calculated, 52 kDa by SEC (most probably dimer); heme-thiolate
T2 sequence (Z9FBJ6W4Y2 1-226 F87L): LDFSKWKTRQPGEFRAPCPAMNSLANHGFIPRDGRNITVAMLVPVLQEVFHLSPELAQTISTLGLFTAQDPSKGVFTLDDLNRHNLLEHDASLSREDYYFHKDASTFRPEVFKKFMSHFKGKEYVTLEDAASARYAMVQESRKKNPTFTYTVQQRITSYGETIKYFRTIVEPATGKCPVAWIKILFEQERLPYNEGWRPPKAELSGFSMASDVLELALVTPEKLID
Kind of data set: benzaldehyde formation at […] nm. The format is biochemical. The following applies: 1 mM H2O2, 0.1 M Tris, optimal pH (Fig. S10), 25°C.

Data set [4] concerns the target T3, rDcaUPO (D. caldariorum UPO) (Daldinia caldariorum, UniProt A0AAN0NP18).
T3 construct: codon-optimised gene in pET28, poly-His tag (thrombin-cleavable, no effect on activity), soluble in E. coli C41; 29,609 Da calculated, 55 kDa by SEC (most probably dimer)
The experiment in a line: benzaldehyde formation at […] nm, substrate inhibition model. The format is biochemical. As to conditions: 1 mM H2O2, 0.1 M Tris, optimal pH (Fig. S6), 25°C.

Data set [5] addresses T4, rCviUPO (C. virescens UPO) (Achaetomiella virescens, UniProt Z9FBJ6W4Y2).
T4 construct: codon-optimised gene in pET23a, untagged, soluble in E. coli C41; 29,616 Da calculated, 52 kDa by SEC (most probably dimer); heme-thiolate
T4 sequence (Z9FBJ6W4Y2 1-226): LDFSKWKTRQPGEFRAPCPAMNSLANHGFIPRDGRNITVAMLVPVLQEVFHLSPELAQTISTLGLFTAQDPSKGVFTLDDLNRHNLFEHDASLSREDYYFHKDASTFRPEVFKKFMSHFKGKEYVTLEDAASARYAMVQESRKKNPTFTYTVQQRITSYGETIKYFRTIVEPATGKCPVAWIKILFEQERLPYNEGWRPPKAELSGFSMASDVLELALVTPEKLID
The experiment in a line: benzaldehyde formation at […] nm, Hill fit. The format is biochemical. As to conditions: 1 mM H2O2, 0.1 M Tris, optimal pH (Fig. S6), 25°C; sigmoidal, nH 1.6 ± 0.2.

Data set [6] concerns the target T2, rCviUPO (C. virescens UPO). Kind of data set: veratraldehyde formation at […] nm. The format is biochemical. As to conditions: 1 mM H2O2, 0.1 M acetate, optimal pH (Fig. S10), 25°C.
Data set [7] addresses T4, rCviUPO (C. virescens UPO). Kind of data set: veratraldehyde formation at […] nm. The format is biochemical. As to conditions: 1 mM H2O2, 0.1 M acetate, optimal pH (Fig. S6), 25°C.
For data set [8], the target named is T3, rDcaUPO (D. caldariorum UPO). The experiment in a line: veratraldehyde formation at […] nm, substrate inhibition model. The format is biochemical. As to conditions: 1 mM H2O2, 0.1 M acetate, optimal pH (Fig. S6), 25°C.
For data set [9], the target named is T1, rCviUPO (C. virescens UPO). Kind of data set: veratraldehyde formation at […] nm. The following applies: 1 mM H2O2, 0.1 M acetate, optimal pH (Fig. S10), 25°C. The format is biochemical.
Data set [10] deals with the molecule itself. Kind of data set: SEC; Sepharose 12 10/300 column, 10 mM Tris (pH 7.4) with 0.15 M NaCl, calibrated with ferritin, aldolase, bovine serum albumin, ovalbumin, carbonic anhydrase and aprotinin; native mass compared with SDS-PAGE under reducing conditions.
Substrate in data set [11]: CCn1c(=NN=c2sc3cc(S(=O)(=O)O)ccc3n2CC)sc2cc(S(=O)(=O)O)ccc21
Kind of data set: purified protein. The format is biochemical, Daldinia caldariorum. As to conditions: 1 mM H2O2, 0.1 M acetate, optimal pH (Fig. S6), 25°C.

Substrate in data set [12]: COc1ccc(CO)cc1OC
The experiment in a line: purified protein. The format is biochemical, Daldinia caldariorum. As to conditions: 1 mM H2O2, 0.1 M acetate, optimal pH (Fig. S6), 25°C.

Substrate in data set [13]: OCc1ccccc1
The experiment in a line: purified protein. The format is biochemical, Daldinia caldariorum. As to conditions: 1 mM H2O2, 0.1 M Tris, optimal pH (Fig. S6), 25°C.

Substrate in data set [14]: c1ccc2ccccc2c1
Kind of data set: purified protein. The format is biochemical, Daldinia caldariorum. As to conditions: 1 mM H2O2, 0.1 M tartrate with 5% ethanol, optimal pH (Fig. S6), 25°C, Methods say Hill fit, Results say Michaelis-Menten.

The stoichiometry N is the number of molecules, sites or subunits per partner or assembly. Turning to “recombinant Daldinia caldariorum unspecific peroxygenase (enzyme)”, in data set [1], the stoichiometry N is 2.
For orientation: Km means the substrate concentration at which the rate is half of its maximum. Consider `OCc1ccccc1` [benzyl alcohol], for which the values for the Michaelis constant (Km) in data set [2], in data set [3] and in [5] were 1870 µM, 623 ± 111 µM and 7100 µM, respectively. In addition, the “Ki (μM)” value in data set [4] is recorded as 9,280 ± 2,270 μM.
With `COc1ccc(CO)cc1OC` [veratryl alcohol], the Km in data set [6] was 1150 µM; in [7] it was 2940 µM; in [9] it was 3970 µM. Moreover, the “Ki (μM)” value in data set [8] is recorded as 45,400 ± 7,000 μM.

B1: recombinant Collariella virescens unspecific peroxygenase (enzyme)
chain: ALDFSKWKTRQPGEFRAPCPAMNSLANHGFIPRDGRNITVAMLVPVLQEVFHLSPELAQTISTLGLFTAQDPSKGVFTLDDLNRHNLFEHDASLSREDYYFHKDASTFRPEVFKKFMSHFKGKEYVTLEDAASARYAMVQESRKKNPTFTYTVQQRITSYGETIKYFRTIVEPATGKCPVAWIKILFEQERLPYNEGWRPPKAELSGFSMASDVLELALVTPEKLID
As for B1, the “stoichiometry N” value in [10] stood at 2.

B2: rDcaUPO (D. caldariorum UPO) (Daldinia caldariorum) (protein)
chain: MAPWKAPGPDDVRGPCPMLNTLANHGFLPHDGKNIDVNTTVNALSSALNLDDELSRDLHTFAVTTNPQPNATWFSLNHLSRHNVLEHDASLSRQDAYFGPPDVFNAAVFNETKAYWTGDIINFQMAANALTARLMTSNLTNPEFSMSQLGRGFGLGETVCYVTILGSKETRTVPKAFVEYLFENERLPYELGFKKMKSALTEDELTTMMGEIYSLQHLPESFTKPFAKRSEAPFEKRAEKRCPFH
notes: codon-optimised gene in pET28, poly-His tag (thrombin-cleavable, no effect on activity), soluble in E. coli C41; 29,609 Da calculated, 55 kDa by SEC (most probably dimer)
A word on the kcat: it is the number of substrate molecules converted per active site and unit of time at saturation. For orientation: kcat/Km means the second-order rate constant that governs catalysis at low substrate concentration. For B2, the Km was 59 ± 6 µM in “purified protein [11]”, 160 ± 22 µM in “purified protein [12]”, 179 ± 36 µM in the data set “purified protein [13]” and 332 ± 81 µM in the data set “purified protein [14]”. In addition, the turnover number (kcat) in “purified protein [11]” came to 6.73 ± 0.14 s⁻¹; in the data set “purified protein [12]” it was 2.39 ± 0.09 s⁻¹; in “purified protein [13]” it was 16.1 ± 1.19 s⁻¹; in “purified protein [14]”, 22.1 ± 1.92 s⁻¹. Besides, the kcat/Km was 114000 ± 10500 M⁻¹ s⁻¹ in “purified protein [11]”, 14800 ± 2100 M⁻¹ s⁻¹ in “purified protein [12]”, 90000 ± 19000 M⁻¹ s⁻¹ in the data set “purified protein [13]” and 66800 ± 17300 M⁻¹ s⁻¹ in “purified protein [14]”.

Values taken from publication PMC7082571, “Two New Unspecific Peroxygenases from Heterologous Expression of Fungal Genes in Escherichia coli” (Applied and Environmental Microbiology, 2020).
